Data reported in article PMC3236591, “Central domain deletions affect the SAXS solution structure and function of Yeast Hsp40 proteins Sis1 and Ydj1” (BMC Structural Biology, 2011).

Experiments:
[1] = molecular target: the molecule itself; assay: SAXS; 2.75 to 7.1 mg/mL protein in 25 mM Tris-HCl pH 7.5, 500 mM NaCl; molecular mass from I(0) against a BSA standard
heated luciferase = molecular target: T1, heated luciferase (UniProt P08659 1-550 = luciferase); assay: not stated; binding of Hsp40s to heated denatured luciferase as previously described (refs 15, 21); Sis1 binding set as standard (100%)
T1 construct: luciferase, heat-denatured, used as client protein; Heat-denatured in the assay; Firefly luciferase is surmised; also called heated denaturated luciferase; denatured luciferase
T1 sequence (P08659 whole entry): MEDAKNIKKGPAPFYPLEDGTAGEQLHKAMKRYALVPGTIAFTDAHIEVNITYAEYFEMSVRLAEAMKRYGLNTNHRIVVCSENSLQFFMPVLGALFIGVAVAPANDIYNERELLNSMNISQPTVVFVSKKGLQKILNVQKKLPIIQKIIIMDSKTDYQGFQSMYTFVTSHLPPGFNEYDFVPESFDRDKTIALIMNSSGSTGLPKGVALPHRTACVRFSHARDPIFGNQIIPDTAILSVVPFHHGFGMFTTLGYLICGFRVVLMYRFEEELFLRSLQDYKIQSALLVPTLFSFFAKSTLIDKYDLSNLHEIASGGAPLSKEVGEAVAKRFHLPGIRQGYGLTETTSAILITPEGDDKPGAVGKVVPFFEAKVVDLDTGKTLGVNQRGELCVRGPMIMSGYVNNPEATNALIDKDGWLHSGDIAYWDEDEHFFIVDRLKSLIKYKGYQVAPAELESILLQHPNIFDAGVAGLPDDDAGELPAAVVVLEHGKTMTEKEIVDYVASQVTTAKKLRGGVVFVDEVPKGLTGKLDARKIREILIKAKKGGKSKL

Binder	stoichiometry N [1]	percent of Sis1 binding to heated luciferase (heated luciferase)
Sis1_Δ121-257 (natural protein, yeast, UniProt P25294 1-352, looked up, Sis1, yeast Type II Hsp40 (352 residues), residues 121 to 257 (G/M and CTDI) deleted; also called Sis1 G/M plus CTDI deletion mutant; source: E. coli BL21(DE3)pLys, purified (Macro-prep High S cation exchange, hydroxyapatite)) MVKETKLYDLLGVSPSANEQELKKGYRKAALKYHPDKPTGDTEKFKEISEAFEILNDPQKREIYDQYGLEAARSGGPSFGPGGPGGAGGAGGFPGGAGGFSGGHAFSNEDAFNIFSQFFGHPNFKRDGDDLIYTLPLSFKESLLGFSKTIQTIDGRTLPLSRVQPVQPSQTSTYPGQGMPTPKNPSQRGNLIVKYKVDYPISLNDAQKRAIDENF	2	~40%
Ydj1_Δ106-255 (natural protein, Ydj1, yeast Type I Hsp40 (409 residues), residues 106 to 255 (ZFLR and CTDI) deleted; also called Ydj1 ZFLR plus CTDI deletion mutant; source: E. coli BL21(DE3), purified (Macro-prep High Q anion exchange, hydroxyapatite, Superdex 200 SEC)) not shown	2	~40%
Sis1_Δ124-174 (natural protein, yeast, UniProt P25294 1-352, looked up, Sis1, yeast Type II Hsp40 (352 residues), residues 124 to 174 (G/M region) deleted; also called Sis1 G/M deletion mutant; source: E. coli BL21(DE3)pLys, purified (Macro-prep High S cation exchange, hydroxyapatite)) MVKETKLYDLLGVSPSANEQELKKGYRKAALKYHPDKPTGDTEKFKEISEAFEILNDPQKREIYDQYGLEAARSGGPSFGPGGPGGAGGAGGFPGGAGGFSGGHAFSNEDAFNIFSQFFGGSSTYPEEETVQVNLPVSLEDLFVGKKKSFKIGRKGPHGASEKTQIDIQLKPGWKAGTKITYKNQGDYNPQTGRRKTLQFVIQEKSHPNFKRDGDDLIYTLPLSFKESLLGFSKTIQTIDGRTLPLSRVQPVQPSQTSTYPGQGMPTPKNPSQRGNLIVKYKVDYPISLNDAQKRAIDENF	2	~60%
Sis1 (natural protein, yeast, UniProt P25294 1-352, looked up, Sis1, yeast Type II Hsp40, 352 residues (J-domain, G/F, G/M, CTDI, CTDII); also called Type II Hsp40; full length Sis1 protein; source: recombinant, purified (Macro-prep High S cation exchange, hydroxyapatite)) MVKETKLYDLLGVSPSANEQELKKGYRKAALKYHPDKPTGDTEKFKEISEAFEILNDPQKREIYDQYGLEAARSGGPSFGPGGPGGAGGAGGFPGGAGGFSGGHAFSNEDAFNIFSQFFGGSSPFGGADDSGFSFSSYPSGGGAGMGGMPGGMGGMHGGMGGMPGGFRSASSSPTYPEEETVQVNLPVSLEDLFVGKKKSFKIGRKGPHGASEKTQIDIQLKPGWKAGTKITYKNQGDYNPQTGRRKTLQFVIQEKSHPNFKRDGDDLIYTLPLSFKESLLGFSKTIQTIDGRTLPLSRVQPVQPSQTSTYPGQGMPTPKNPSQRGNLIVKYKVDYPISLNDAQKRAIDENF	2	
